Assay results taken from paper PMC6280533, “Construction and characterization of a synthetic Baculovirus-inducible 39K promoter”.

Experiments:
[1] = target: T1, IE-1 (IE1-His) (Bombyx mori nucleopolyhedrovirus (BmNPV), UniProt P33245 1-587); assay: EMSA; probe 1, 2, 6 pmol/L; IE-1 0.8 ug/L (so in the source); details: protein: recombinant; tags: His (pCold-I); chain copies: 2; label: 5' biotin; blunt
T1 sequence: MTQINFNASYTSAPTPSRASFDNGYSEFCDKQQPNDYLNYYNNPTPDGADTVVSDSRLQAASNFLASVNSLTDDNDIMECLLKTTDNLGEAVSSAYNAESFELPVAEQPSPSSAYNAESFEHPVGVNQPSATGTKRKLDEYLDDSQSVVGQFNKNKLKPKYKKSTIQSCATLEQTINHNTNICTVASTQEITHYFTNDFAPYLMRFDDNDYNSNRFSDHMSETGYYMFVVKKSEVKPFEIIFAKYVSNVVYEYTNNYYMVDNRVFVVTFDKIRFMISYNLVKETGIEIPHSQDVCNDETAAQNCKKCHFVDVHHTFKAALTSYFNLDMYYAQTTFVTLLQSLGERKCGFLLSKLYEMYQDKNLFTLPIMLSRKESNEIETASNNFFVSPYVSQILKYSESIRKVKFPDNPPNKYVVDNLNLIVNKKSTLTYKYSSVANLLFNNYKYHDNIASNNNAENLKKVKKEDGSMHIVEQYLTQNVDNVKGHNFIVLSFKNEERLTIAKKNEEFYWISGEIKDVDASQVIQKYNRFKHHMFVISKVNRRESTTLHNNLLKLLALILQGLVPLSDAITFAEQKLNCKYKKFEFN

[2] = target: T1, IE-1 (IE1-His); assay: EMSA; details: protein: recombinant; tags: His (pCold-I); chain copies: 2; label: 5' biotin; blunt

B1: 39K probe 3 (-310 to -355) (dsDNA)
DNA 1: AATATTTTAATTATATGAACGACAAACAATTGATCACGTACGATTA
DNA 2: TAATCGTACGTGATCAATTGTTTGTCGTTCATATAATTAAAATATT
- binding result [1]: binds

B2: 39K probe 4 (+2 to +47) (dsDNA)
DNA 1: AGTAATTACCGACAAATGTTCTAAGCGTAAGGTGTGTCTTCATCAC
DNA 2: GTGATGAAGACACACCTTACGCTTAGAACATTTGTCGGTAATTACT
- binding result [2]: no binding

B3: 39K probe 1 (-486 to -532) (dsDNA)
DNA 1: AGTATTTGATATACGTAGGCGTCGTGCGCGGCAACTTGATTGACGTG
DNA 2: CACGTCAATCAAGTTGCCGCGCACGACGCCTACGTATATCAAATACT
- binding result [2]: no binding

B4: 39K probe 2 (-386 to -431) (dsDNA)
DNA 1: GACTATCGTATAATATTAAAACCGCGACGCTTCAATTGCGAAATAA
DNA 2: TTATTTCGCAATTGAAGCGTCGCGGTTTTAATATTATACGATAGTC
- binding result [2]: no binding
